Data reported in patent US20060057652A1 (UNIVERSITY OF MASSACHUSETTS, published 2006).
Substitutions are numbered along the chain they refer to.

B1: triple FLAG-tagged Ap-SV40NLS (other)
chain: MNALQEDTPPGPSTVFRPPTSSRPLETPHCREIRIGIAGITITLSLCGCANARAPTLRSATADNSESTGFKNVPDLRTDQPKPPSKKRPKKKRKV
notes: The make-up (Apoptin 1-88 plus SV40 LT NLS) is described for the GFP construct; not shown: triple FLAG tag
B2: FLAG-tagged wild type Apoptin expressed from adenovirus Ad-Apwt (other)
chain: MNALQEDTPPGPSTVFRPPTSSRPLETPHCREIRIGIAGITITLSLCGCANARAPTLRSATADNSESTGFKNVPDLRTDQPKPPSKKRSCDPSEYRVSELKESLITTTPSRPRTAKRRIRL
notes: Expressed in infected H1299 or PFF cells and pulled down from lysates on anti-FLAG beads; also called FLAG-Apoptin; FLAG-tagged Apoptin
B3: triple FLAG-tagged Ap-pmNLS2 (other)
chain: B2 chain with K116A, R117A, R118A
notes: not shown: triple FLAG tag

Experiments:
[1] = molecular target: T1, anaphase promoting complex subunit 1 (APC1) (Homo sapiens, UniProt Q9H1A4 1-1944); assay: anti-FLAG immunoprecipitation from H1299 cells, APC1 immunoblot
T1 construct: Endogenous protein in lysates of H1299 (or PFF) cells, detected with a polyclonal anti-APC1 antibody or by MALDI-TOF; also called Cyclosome subunit 1; Protein TSG24

[2] = molecular target: T2, β-actin (UniProt P60709 2-375); assay: anti-FLAG affinity purification from Ad-Apwt-infected H1299 cells, SDS-PAGE, MALDI-TOF
T2 construct: also called beta-actin

T1 sequence (Q9H1A4 whole entry, one chain of several): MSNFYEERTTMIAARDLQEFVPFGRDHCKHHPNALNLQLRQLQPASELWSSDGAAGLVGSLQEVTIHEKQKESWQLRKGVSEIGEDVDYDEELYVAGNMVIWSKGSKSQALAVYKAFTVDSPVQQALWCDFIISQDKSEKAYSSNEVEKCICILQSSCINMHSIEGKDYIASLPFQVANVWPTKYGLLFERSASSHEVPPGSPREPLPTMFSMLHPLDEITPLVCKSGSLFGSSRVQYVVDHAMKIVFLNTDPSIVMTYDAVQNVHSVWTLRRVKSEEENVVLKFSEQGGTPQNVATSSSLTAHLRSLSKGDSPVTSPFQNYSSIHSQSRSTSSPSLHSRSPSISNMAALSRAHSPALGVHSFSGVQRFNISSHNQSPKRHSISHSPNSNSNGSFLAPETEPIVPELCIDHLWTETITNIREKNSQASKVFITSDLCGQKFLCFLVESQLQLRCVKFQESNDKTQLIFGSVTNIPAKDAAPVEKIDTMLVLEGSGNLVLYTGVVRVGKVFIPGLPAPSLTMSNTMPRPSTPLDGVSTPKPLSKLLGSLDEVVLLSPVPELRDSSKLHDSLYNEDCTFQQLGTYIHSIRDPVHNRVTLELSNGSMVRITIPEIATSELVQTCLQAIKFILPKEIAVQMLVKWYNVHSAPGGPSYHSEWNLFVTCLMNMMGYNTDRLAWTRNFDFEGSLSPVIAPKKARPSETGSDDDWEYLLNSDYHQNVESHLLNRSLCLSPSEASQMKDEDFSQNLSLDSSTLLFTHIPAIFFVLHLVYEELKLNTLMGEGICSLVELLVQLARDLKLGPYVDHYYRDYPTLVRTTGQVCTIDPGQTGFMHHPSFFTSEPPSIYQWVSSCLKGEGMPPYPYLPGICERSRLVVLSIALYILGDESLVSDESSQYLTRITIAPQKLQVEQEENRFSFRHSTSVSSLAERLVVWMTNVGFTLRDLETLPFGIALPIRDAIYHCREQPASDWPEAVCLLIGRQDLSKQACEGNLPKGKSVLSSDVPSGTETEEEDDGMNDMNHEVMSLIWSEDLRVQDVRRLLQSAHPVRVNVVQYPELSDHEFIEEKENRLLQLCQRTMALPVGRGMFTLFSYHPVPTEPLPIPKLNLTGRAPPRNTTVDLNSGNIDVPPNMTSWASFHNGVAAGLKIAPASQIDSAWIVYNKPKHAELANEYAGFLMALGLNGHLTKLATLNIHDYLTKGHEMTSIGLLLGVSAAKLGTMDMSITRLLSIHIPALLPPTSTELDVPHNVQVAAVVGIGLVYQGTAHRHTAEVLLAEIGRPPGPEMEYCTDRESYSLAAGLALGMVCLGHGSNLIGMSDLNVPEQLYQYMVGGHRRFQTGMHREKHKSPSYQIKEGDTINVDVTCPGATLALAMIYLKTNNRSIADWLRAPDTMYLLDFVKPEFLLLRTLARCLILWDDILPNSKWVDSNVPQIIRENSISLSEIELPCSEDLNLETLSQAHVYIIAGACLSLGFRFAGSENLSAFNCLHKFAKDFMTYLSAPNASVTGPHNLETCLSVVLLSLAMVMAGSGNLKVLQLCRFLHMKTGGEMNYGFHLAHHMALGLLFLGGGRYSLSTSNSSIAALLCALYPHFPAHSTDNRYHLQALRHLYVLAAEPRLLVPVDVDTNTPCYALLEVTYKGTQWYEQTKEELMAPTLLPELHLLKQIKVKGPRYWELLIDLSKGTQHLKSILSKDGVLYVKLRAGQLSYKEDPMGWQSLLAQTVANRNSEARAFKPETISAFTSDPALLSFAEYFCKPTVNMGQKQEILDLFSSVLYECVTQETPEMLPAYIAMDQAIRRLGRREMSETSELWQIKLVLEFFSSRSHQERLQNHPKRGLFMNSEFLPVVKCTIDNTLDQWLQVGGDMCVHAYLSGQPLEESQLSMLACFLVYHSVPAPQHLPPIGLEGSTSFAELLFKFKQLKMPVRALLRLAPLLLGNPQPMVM

Binder	binding result [1]	binding result [2]
B1	no binding	–
B2	–	binds
B3	no binding	–
